Target: Endogenous bovine Arp2/3 complex, A7MB62;P61157
Assay: fluorescence anisotropy competition assay
Details: chain shown with the change; reporter 20 nM VVCA-A462C-AF594; mixture incubated for 10 min prior to measurement; parent: est. 6.0 nM; read off a plot

B1: GST-VCA (GST fusion of N-WASP residues 432–505), O00401 I467A (protein)
chain: SGRDALLDQIRQGIQLKSVADGQESTPPTPAPTSGAVGALMEVMQKRSKAIHSSDEDEDEDDEEDFEDDDEWED
B1 showed a Kd of 20 nM.

From PMC3762362
